Source: publication doi:10.1101/2021.01.21.427698 (bioRxiv, 2021)

B1: recombinant Drosophila septin hexamers (DSep1-msfGFP, DSep2, Peanut) (complex)
chain 1: MADTKGFSSIETPGYVGFANLPNQVHRKSVKKGFEFTLMVVGESGLGKSTLVNSLFLTDLYPERIIPDAIEKQKQTVKLEASTVEIEERGVKLRLTVVDTPGFGDAIDNSNSFGAILEYIDEQYERFLRDESGLNRRNIVDNRIHCCFYFISPFGHGLKPLDVEFMKKLHSKVNIVPVIAKADCLTKKEILRLKCRIMQEIESHGIKIYPLPDCDSDEDEDYKEQVKQLKEAVPFAVCGANTLLEVKGKKVRGRLYPWGVVEVENPDHCDFIKLRTMLITHMQDLQEVTQEVHYENYRSDRLAKGIKGKENGVKAERDSSSQVVSNSVLGEKDRILQEKEAELRRMQEMLAQMQARMQAQQ
chain 2: MSVEVDFVDKKEVHLRTLKQSGHVGFDSLPDQLVNKSVQNGFVFNVMCIGETGLGKSTLMDTLFNTSFESTPSPHTLPSVKLKAHTYELQESNVRLKLTICDTVGYGDQINKDDSFKAVVDYIDAQFENYLQEELKIKRSLVTCHDSRIHICLYFICPTGHGLKSLDLVCMKKLDSKVNIIPVIAKADTISKVELQRFKAKIIQELNANGVHIYQFPTDDETVAETNTSMNSHIPFAVVGSTEFIKVGNKLIRARQYPWGTVQVENETHCDFVKLREMLIRTNMEDMREKTHTRHYELYRQKRLEQMGFSDVDSDNKPISFQQTFEAKRSNHLAELQSKEEEVRQMFVQRVKEKEAELKESEKDLHAKFEKLKRDHAEEKRKLEESRKALEEDYLDFQRRKQQLATAHHTLTLGKSKKK
chain 3: MNSPRSNAVNGGSGGAISALPSTLAQLALRDKQQAASASASSATNGSSGSESLVGVGGRPPNQPPSVPVAASGKLDTSGGGASNGDSNKLTHDLQEKEHQQAQKPQKPPLPVRQKPMEIAGYVGFANLPNQVYRKAVKRGFEFTLMVVGASGLGKSTLINSMFLSDIYNAEQYPGPSLRKKKTVAVEATKVMLKENGVNLTLTVVDTPGFGDAVDNSNCWVPILEYVDSKYEEYLTAESRVYRKTISDSRVHCCLYFIAPSGHGLLPLDIACMQSLSDKVNLVPVIAKADTMTPDEVHLFKKQILNEIAQHKIKIYDFPATLEDAAEEAKTTQNLRSRVPFAVVGANTIIEQDGKKVRGRRYPWGLVEVENLTHCDFIALRNMVIRTHLQDLKDVTNNVHYENYRCRKLSELGLVDGKARLSNKNPLTQMEEEKREHEQKMKKMEAEMEQVFDMKVKEKMQKLRDSELELARRHEERKKALELQIRELEEKRREFEREKKEWEDVNHVTLEELKRRSLGANSSTDNVDGKKEKKKKGLF
B2: SEPT2-msfGFP human septin octamers containing SEPT9_i3 (complex)
chain 1: MSKQQPTQFINPETPGYVGFANLPNQVHRKSVKKGFEFTLMVVGESGLGKSTLINSLFLTDLYPERVIPGAAEKIERTVQIEASTVEIEERGVKLRLTVVDTPGYGDAINCRDCFKTIISYIDEQFERYLHDESGLNRRHIIDNRVHCCFYFISPFGHGLKPLDVAFMKAIHNKVNIVPVIAKADTLTLKERERLKKRILDEIEEHNIKIYHLPDAESDEDEDFKEQTRLLKASIPFSVVGSNQLIEAKGKKVRGRLYPWGVVEVENPEHNDFLKLRTMLITHMQDLQEVTQDLHYENFRSERLKRGGRKVENEDMNKDQILLEKEAELRRMQEMIARMQAQMQMQMQGGDGDGGALGHHV
chain 2: MAATDIARQVGEGCRTVPLAGHVGFDSLPDQLVNKSVSQGFCFNILCVGETGLGKSTLMDTLFNTKFEGEPATHTQPGVQLQSNTYDLQESNVRLKLTIVSTVGFGDQINKEDSYKPIVEFIDAQFEAYLQEELKIRRVLHTYHDSRIHVCLYFIAPTGHSLKSLDLVTMKKLDSKVNIIPIIAKADAISKSELTKFKIKITSELVSNGVQIYQFPTDDESVAEINGTMNAHLPFAVIGSTEELKIGNKMMRARQYPWGTVQVENEAHCDFVKLREMLIRVNMEDLREQTHTRHYELYRRCKLEEMGFKDTDPDSKPFSLQETYEAKRNEFLGELQKKEEEMRQMFVQRVKEKEAELKEAEKELHEKFDRLKKLHQDEKKKLEDKKKSLDDEVNAFKQRKTAAELLQSQGSQAGGSQTLKRDKEKKN
chain 3: MSVSARSAAAEERSVNSSTMVAQQKNLEGYVGFANLPNQVYRKSVKRGFEFTLMVVGESGLGKSTLINSLFLTDLYSPEYPGPSHRIKKTVQVEQSKVLIKEGGVQLLLTIVDTPGFGDAVDNSNCWQPVIDYIDSKFEDYLNAESRVNRRQMPDNRVQCCLYFIAPSGHGLKPLDIEFMKRLHEKVNIIPLIAKADTLTPEECQQFKKQIMKEIQEHKIKIYEFPETDDEEENKLVKKIKDRLPLAVVGSNTIIEVNGKRVRGRQYPWGVAEVENGEHCDFTILRNMLIRTHMQDLKDVTNNVHYENYRSRKLAAVTYNGVDNNKNKGQLTKSPLAQMEEERREHVAKMKKMEMEMEQVFEMKVKEKVQKLKDSEAELQRRHEQMKKNLEAQHKELEEKRRQFEDEKANWEAQQRILEQQNSSRTLEKNKKKGKIF
chain 4: MERDRISALKRSFEVEEVETPNSTPPRRVQTPLLRATVASSTQKFQDLGVKNSEPSARHVDSLSQRSPKASLRRVELSGPKAAEPVSRRTELSIDISSKQVENAGAIGPSRFGLKRAEVLGHKTPEPAPRRTEITIVKPQESAHRRMEPPASKVPEVPTAPATDAAPKRVEIQMPKPAEAPTAPSPAQTLENSEPAPVSQLQSRLEPKPQPPVAEATPRSQEATEAAPSCVGDMADTPRDAGLKQAPASRNEKAPVDFGYVGIDSILEQMRRKAMKQGFEFNIMVVGQSGLGKSTLINTLFKSKISRKSVQPTSEERIPKTIEIKSITHDIEEKGVRMKLTVIDTPGFGDHINNENCWQPIMKFINDQYEKYLQEEVNINRKKRIPDTRVHCCLYFIPATGHSLRPLDIEFMKRLSKVVNIVPVIAKADTLTLEERVHFKQRITADLLSNGIDVYPQKEFDEDSEDRLVNEKFREMIPFAVVGSDHEYQVNGKRILGRKTKWGTIEVENTTHCEFAYLRDLLIRTHMQNIKDITSSIHFEAYRVKRLNEGSSAMANGVEEKEPEAPEM

Molecular target: the molecule itself
Test: spinning disk fluorescence microscopy of septin polymerisation

Protein	binding result
B1	binds
B2	binds
